Measured values as given in patent publication US20210032313A1 (Daiichi Sankyo, published 2021).
Residue numbers refer to the chain shown, from its start.

Legend:
mouse KLK5 = target: T1, mouse KLK5 (mouse); assay: cell-based or functional assay
T1 chain: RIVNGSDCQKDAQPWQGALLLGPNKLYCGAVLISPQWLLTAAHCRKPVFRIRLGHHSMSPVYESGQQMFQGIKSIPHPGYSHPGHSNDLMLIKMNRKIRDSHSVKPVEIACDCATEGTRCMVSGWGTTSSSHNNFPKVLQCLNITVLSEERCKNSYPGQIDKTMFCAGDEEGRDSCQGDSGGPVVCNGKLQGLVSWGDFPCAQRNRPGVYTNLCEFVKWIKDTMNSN

mouse KLK14 = target: T2, mouse KLK14 (mouse, UniProt Q8CGR5 24-250); assay: cell-based or functional assay
T2 sequence: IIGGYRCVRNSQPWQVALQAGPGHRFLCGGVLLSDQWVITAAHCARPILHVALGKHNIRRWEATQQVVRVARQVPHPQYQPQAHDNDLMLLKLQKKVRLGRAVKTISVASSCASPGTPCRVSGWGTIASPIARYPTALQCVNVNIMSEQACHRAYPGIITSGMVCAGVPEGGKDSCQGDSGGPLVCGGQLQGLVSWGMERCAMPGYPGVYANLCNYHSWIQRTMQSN

mouse KLK7 = mouse KLK7 (mouse, UniProt Q91VE3 26-249); assay: cell-based or functional assay
Sequence of mouse KLK7 (Q91VE3 26-249): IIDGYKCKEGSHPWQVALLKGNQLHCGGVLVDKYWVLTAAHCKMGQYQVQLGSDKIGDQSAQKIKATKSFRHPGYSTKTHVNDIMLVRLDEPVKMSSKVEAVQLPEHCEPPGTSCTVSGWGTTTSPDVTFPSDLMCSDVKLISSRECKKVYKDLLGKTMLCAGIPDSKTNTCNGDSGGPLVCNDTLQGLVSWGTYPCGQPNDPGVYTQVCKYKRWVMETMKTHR

KLK4 = target: T3, KLK4 (human, UniProt Q9Y5K2); assay: fluorogenic peptide substrate cleavage, 1 µM inhibitor
T3 construct: commercial enzyme (R&D Systems, 1719-SE); 1 µg/mL in the assay; substrate Boc-Val-Pro-Arg-AMC 100 µM; also called Human KLK4; hKLK4
T3 sequence (Q9Y5K2 31-254 limits assumed): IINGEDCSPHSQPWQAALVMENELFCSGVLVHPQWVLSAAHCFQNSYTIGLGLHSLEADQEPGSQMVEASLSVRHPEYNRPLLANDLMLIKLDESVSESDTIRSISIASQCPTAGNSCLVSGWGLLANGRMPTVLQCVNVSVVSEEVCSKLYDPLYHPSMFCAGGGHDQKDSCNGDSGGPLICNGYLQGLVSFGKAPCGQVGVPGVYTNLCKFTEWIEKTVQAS
Experimental: FIG. 3F includes graphs to evaluate the cross-reactivity of each inhibitory peptide with proteases, using the degradation of a peptide substrate as an index. For evaluating the Human KLK1 inhibitory activity, hKLK1 (R&D Systems, Inc., 2337-SE) with a final concentration of 0.1 μg/mL and a substrate peptide Pro-Phe-Arg-MCA (PEPTIDE […], INC., 3096-v) with a final concentration of 100 μM were used. For evaluating the Human KLK2 inhibitory activity, hKLK2 (R&D Systems, Inc., 4104-SE) with a final concentration of 2 μg/mL and a substrate peptide Pro-Phe-Arg-MCA (PEPTIDE […], INC., 3096-v) with a final concentration of 100 μM were used. For evaluating the Human KLK4 inhibitory activity, hKLK4 (R&D Systems, Inc., 1719-SE) with a final concentration of 1 μg/mL and a substrate peptide Boc-Val-Pro-Arg-AMC (R&D Systems, Inc., ES011) with a final concentration of 100 μM were used.
The specificities for other proteases were evaluated using the degradation of a substrate peptide as an index. As in the method described in (3-1), 25 μL each of a protease and a sample diluted with an assay buffer were mixed (to a final concentration of sample of 1 μM), followed by a reaction at 37° C. for 20 minutes. Thereafter, 50 μL of a substrate diluted with an assay buffer was added thereto, and the fluorescence signal was measured using Enspire (PerkinElmer). An assay buffer (50 mM Tris, 150 mM NaCl, pH 8.0) was used for the evaluation of the protease activity, and a PROTEOSAVE® SS96F black plate (Sumitomo Bakelite Co., Ltd.) was used for the reaction and the measurement. The combinations of the protease and the substrate used for the evaluation of the specificity were as follows.

B1: KLK5/KLK14 inhibitory peptide K51069 (peptide)
chain: GPQFGLFSKYRTPNCSQVVETYCNRDYDPVCGSDMSTYANECTLCMKIREGGHNIKIIRNGPCGG
notes: SPINK2 mutant peptide made in E. coli
IC50(nM) for mKLK5 (mouse KLK5): < 0.5 nM
IC50(nM) for mKLK14 (mouse KLK14): 40 nM
IC50(nM) for mKLK7 (mouse KLK7): 181 nM
binding result (KLK4): binds

B2: KLK5/KLK14 inhibitory peptide K50015 (peptide)
chain: B1 chain with S16Y, Q17D, V18T, V19T, E20T, T21H, N24S, D26E
notes: as for B1
IC50(nM) for mKLK5 (mouse KLK5): < 0.5 nM
IC50(nM) for mKLK14 (mouse KLK14): 108 nM
IC50(nM) for mKLK7 (mouse KLK7): 248 nM
binding result (KLK4): binds
